We go through 139 substances from the supplement of paper PMC12042874.

± gives the uncertainty stated by the source.

This data set in a line: amyloid nucleation score (Sup35N fusion, yeast selection) (log enrichment); library NNK1; higher = more nucleation; inactive = no reads after selection. The gist of the method: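 Sup35N was fused to peptides of 20 random codons and expressed in psi-negative yeast, which were induced with 100 μM copper sulfate for 24 hours and then grown on medium lacking adenine and uracil for 7 days at 30°C. Plasmid inserts from input and output were sequenced on Illumina. The nucleation score is the DiMSum log enrichment of output over input reads, centred on the mode score of non-aggregating sequences. Sequences with under 100 input reads were left out, and random libraries had three technical output replicates.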
With SRPDVLYCDIFHFRHQILSF, the amyloid nucleation score is -0.173 ± 0.75.

SRSGSLKCRGAQGFTCY showed an amyloid nucleation score of 0.564 ± 0.52.

With SRSLPLHCMRHGVRRTGRMA, the amyloid nucleation score came out at 0.668 ± 0.57.

Turning to SRVSNCISLVMYKAKLCSIR, the amyloid nucleation score was found to be 0.644 ± 0.5.

In turn, SRVVSYSL registered an amyloid nucleation score of -0.5 ± 0.41.

As to SRYRA, the amyloid nucleation score came to 5.11 ± 0.076.

Regarding SRYSNDLSDIMGDDESRSAH, the amyloid nucleation score is 0.136 ± 0.28.

The substance SRYWKFRCTFSTKFESTKRS had an amyloid nucleation score of 3.95 ± 0.17.

On to SRYYASYFGIG, for which the amyloid nucleation score was 0.034 ± 0.97.

In the case of SSCGFMRNVIITMHKADIDR, the amyloid nucleation score result was “inactive”.

Regarding SSCVTFSYMKSVFRFLPCWW, the amyloid nucleation score is 1.96 ± 0.092.

For SSDSVSLYYLISYTPFGRFN, the amyloid nucleation score result was “inactive”.

For the substance SSFCRLLNIMYSRWGGLGTY, the amyloid nucleation score result was “inactive”.

Consider SSFKWLAASWLQGALHTMRG, for which the amyloid nucleation score is -0.348 ± 0.79.

SSFLFSFWGAIGSIKSTFFW yielded an amyloid nucleation score of -0.054 ± 0.24.

For SSFRLHR, the amyloid nucleation score entry was “inactive”.

On to SSFRLQALPVEFHGVNYHLA, for which the amyloid nucleation score was determined as 0.182 ± 0.92.

As to SSFYTRFWVGSHMCFAGMPK, the amyloid nucleation score was 0.203 ± 1.2.

Substance SSGFKSAPFSFLRLFLHISR registered an amyloid nucleation score of -1.47 ± 2.4.

In the case of SSGYGECAFVT, the amyloid nucleation score was -0.055 ± 0.33.

Take SSIAAIVM: the amyloid nucleation score amounted to 0.723 ± 0.41.

Substance SSKYTCFSDYKKCVYTLWRL came in with an amyloid nucleation score of 0.292 ± 0.6.

On to SSLQPLIFMRSIHLIVW, for which the amyloid nucleation score was 0.265 ± 0.75.

On to SSLWTCREVTDIFIHNCAMI, for which the amyloid nucleation score came out at 1.21 ± 0.79.

SSNLRKTFMSAMHVSSCMV came in with an amyloid nucleation score of 0.396 ± 0.56.

In the case of SSNRLSSMQG, the amyloid nucleation score was determined as 1.09 ± 0.38.

Take SSNSPCMPVRRTADNPSPYA: the amyloid nucleation score came to 0.239 ± 0.51.

SSNWLRY yielded an amyloid nucleation score of 0.692 ± 0.66.

Take SSPRTLRGLIYGRIKYYVLE: the amyloid nucleation score was 1.84 ± 0.35.

SSRFDSLFVNNIMIFWVSKF yielded an amyloid nucleation score of 5.015 ± 0.048.

In the case of SSRGRPLQPSIQIKYSFVMY, the amyloid nucleation score was 4.13 ± 0.095.

SSRYFLFLAHTHWLCTMTCP registered an amyloid nucleation score of -0.064 ± 0.8.

The substance SSSRV showed an amyloid nucleation score of 0.111 ± 0.42.

In turn, SSSSYNSR registered an amyloid nucleation score of 0.97 ± 0.62.

Regarding SSSVCPLHSADSCVSGISAD, the amyloid nucleation score stood at 1.73 ± 0.64.

Substance SSVCFGYRAIGTIRHMFSKC came in with an amyloid nucleation score of 0.311 ± 0.33.

In turn, SSWYVITATFIKDCGMTARR returned an amyloid nucleation score of 4.03 ± 0.082.

Regarding SSYCNLVASIL, the amyloid nucleation score came to 0.649 ± 0.53.

The substance SSYFMVYYQRVTSCFMVGFL had an amyloid nucleation score of -0.865 ± 0.48.

STALLS: the amyloid nucleation score amounted to 0.21 ± 0.74.

Regarding STASQWQCHD, the amyloid nucleation score stood at 0.461 ± 0.41.

In the case of STCNYLDSGGRDRCSFFNCD, the amyloid nucleation score came to 0.078 ± 0.47.

STDSLLRWIKPERDGYRFLW had an amyloid nucleation score of -0.479 ± 0.45.

STDVFYLV displayed an amyloid nucleation score of -0.669 ± 0.39.

STERKYLSLDKSWNVRLVLF: the amyloid nucleation score came to 1.61 ± 0.23.

On to STFAALNVKSCGVCLMWLLD, for which the amyloid nucleation score stood at 0.1 ± 0.84.

On to STFGPCEVLVVQVDGPAYHT, for which the amyloid nucleation score was -0.37 ± 0.55.

The substance STGPNLKVLVSSKS gave an amyloid nucleation score of -1.66 ± 0.69.

As to STHSDGVGML, the amyloid nucleation score was -0.805 ± 1.2.

For STNIGWAMINLKRYPVLRDA, the amyloid nucleation score is -0.18 ± 0.29.

As for STNWFNYSNGNTVWDIGDYL, the amyloid nucleation score is 0.4 ± 0.32.

In the case of STVLATFHVE, the amyloid nucleation score was found to be 0.041 ± 0.37.

Regarding STVLQWIIGRPLYARDSLAS, the amyloid nucleation score was -0.561 ± 0.6.

Turning to STYSSWQDTRVFNLAMLSI, the amyloid nucleation score is -0.68 ± 0.85.

STYYVVRDFFLDSSTGTVYS: the amyloid nucleation score was -0.031 ± 0.61.

On to SVACPGLARMGRRSGREYNE, for which the amyloid nucleation score is -1.46 ± 0.59.

Regarding SVCTGRYPSRAHGEGASNTC, the amyloid nucleation score stood at 0.08 ± 0.66.

The substance SVDRMAYRMCMRNVRLNLCT yielded an amyloid nucleation score of 0.962 ± 0.37.

SVGDVVYGEFLIAKQSAACV: the amyloid nucleation score came out at 0.115 ± 0.44.

The substance SVGFDDGPRSGTLNGFVSRR yielded an amyloid nucleation score of -0.262 ± 0.6.

In turn, SVINIGRNMISI showed an amyloid nucleation score of -0.353 ± 0.67.

As for SVISRIKCRASRDGLHHGNH, the amyloid nucleation score is 0.862 ± 0.28.

On to SVIVLFTIRRSWRPHSFRES, for which the amyloid nucleation score was 0.94 ± 0.32.

Consider SVLIRALFTFKLRSVERQDY, for which the amyloid nucleation score stood at 3.82 ± 0.069.

SVMFQECFVNEFIGVHRCRD returned an amyloid nucleation score of 6.324 ± 0.047.

SVPQLVPNHFRVSWANHS yielded an amyloid nucleation score of -0.05 ± 1.4.

SVRSVRSNPRFTSHLPCSKK came in with an amyloid nucleation score of -0.413 ± 0.54.

The substance SVRTCFNRYLKQVRVWSYAG displayed an amyloid nucleation score of -0.165 ± 1.6.

In turn, SVSMY registered an amyloid nucleation score of 0.068 ± 0.27.

In turn, SVTLCKFRKT yielded an amyloid nucleation score of -0.197 ± 0.37.

As for SVTLIGFILDLRTGHILWYK, the amyloid nucleation score was -0.423 ± 0.62.

SVVCVVSCYKIGAWLRAGG: the amyloid nucleation score amounted to 0.648 ± 0.52.

On to SVVIFHHTICLERDAVRQKF, for which the amyloid nucleation score is 5.02 ± 0.083.

Regarding SVVMHSWLLLIVTSGSFMYV, the amyloid nucleation score came to 0.218 ± 0.53.

SVWCGSWVYNTLRLNMGTNL showed an amyloid nucleation score of 3.01 ± 0.15.

Substance SVWNILLIV displayed an amyloid nucleation score of 0.665 ± 0.34.

Regarding SWASKRCSPCCDGSGFPMYL, the amyloid nucleation score is -1.37 ± 2.7.

In the case of SWDLGREYSGHRMTCLVWLV, the amyloid nucleation score is -0.403 ± 0.68.

Substance SWIRNRWHYTQ gave an amyloid nucleation score of -0.141 ± 0.72.

In turn, SWLIRLSLYWYVNWSCMVGV yielded an amyloid nucleation score of -0.009 ± 0.45.

For the substance SWMCSPRACCLLTFNFECMC, the amyloid nucleation score is -0.635 ± 0.5.

SWNYLVTDAKRRDGGEERVR yielded an amyloid nucleation score of -0.851 ± 1.7.

In the case of SWRTCAPTWKVALFIWMCTS, the amyloid nucleation score was 3.39 ± 0.17.

Turning to SWWPDGLNEMSG, the amyloid nucleation score worked out at 1.11 ± 0.74.

As for SYDISYDFWVNLVAGRLTSM, the amyloid nucleation score is 1.24 ± 0.6.

Consider SYEFVVRSWLSLYLINFKSS, for which the amyloid nucleation score entry is “inactive”.

For the substance SYGGGYTTSQGYGLGELTKY, the amyloid nucleation score is 0.543 ± 1.1.

SYGMSYSVVWNWCECNSA came in with an amyloid nucleation score of 5.23 ± 0.053.

The substance SYGNCVRCSLMYKGKHMLNT displayed an amyloid nucleation score of 0.022 ± 0.52.

SYKNVGRV had an amyloid nucleation score of 0.273 ± 0.86.

Consider SYKVTLVYSRHVVGVKVTRI, for which the amyloid nucleation score stood at 0.233 ± 0.86.

Turning to SYLMY, the amyloid nucleation score was -0.533 ± 0.9.

In turn, SYMFWIPLATQWKRVLNRVW gave an amyloid nucleation score of -0.479 ± 0.54.

Take SYMLVRDTLVLRCSACLLAG: the amyloid nucleation score entry was “inactive”.

With SYNFWLRMAGRCSKM, the amyloid nucleation score is -0.618 ± 0.6.

SYNVMCVGYCIC came in with an amyloid nucleation score of 3.4 ± 0.12.

In turn, SYRFFRGMMYLSHVIDLQSR registered an amyloid nucleation score of -0.307 ± 1.1.

In turn, SYSIYALGSRLIVEYSYKWI showed an amyloid nucleation score of 0.625 ± 0.39.

SYTGHPMNDRWHIG: the amyloid nucleation score came to 3.4 ± 0.074.

For SYTSRPYFTNIYVDYWFMVC, the amyloid nucleation score amounted to 6.216 ± 0.05.

For the substance SYVDRVLSSRSRWMKIVELN, the amyloid nucleation score worked out at 0.083 ± 0.44.

For the substance SYVSKSYLYKRGSELQAVLQ, the amyloid nucleation score was -0.157 ± 0.65.

SYVVTVLHNWVWEEGDLEYE came in with an amyloid nucleation score of 4.36 ± 0.11.

The substance SYYIC returned an amyloid nucleation score of 0.583 ± 0.41.

Substance SYYQKCNAKNIF returned an amyloid nucleation score of -0.576 ± 0.4.

Regarding TAAYRFNESVHVSNSRFMVH, the amyloid nucleation score is 0.334 ± 0.42.

TAGRVITSCWQVLILLVNCG returned an amyloid nucleation score of -0.605 ± 0.54.

For TALRLTSSSIKIATQVDLKF, the amyloid nucleation score was 2.06 ± 0.16.

With TASHFGNKWV, the amyloid nucleation score came to 0.352 ± 0.32.

With TASNHVVLSHPDSGILGIRA, the amyloid nucleation score was -0.278 ± 0.42.

For the substance TASRYLVVRN, the amyloid nucleation score is 0.875 ± 0.43.

In turn, TCCNDDKRYIWCIYSRAKMN came in with an amyloid nucleation score of -1.55 ± 0.42.

Turning to TCFVVLYTKMNVFECFDLQV, the amyloid nucleation score was -0.109 ± 0.51.

Substance TCGRGHVTRGYWGTMCGCNG came in with an amyloid nucleation score of 1.06 ± 0.72.

Consider TCLISCRLPDKGHGSVT, for which the amyloid nucleation score is -0.069 ± 0.44.

With TCQFFRLSNRILQGDYSILM, the amyloid nucleation score is -0.342 ± 0.48.

For the substance TCRKFKYPL, the amyloid nucleation score amounted to 0.372 ± 0.29.

In the case of TCTFPKVIQSYAGRLAMPGY, the amyloid nucleation score is -0.135 ± 0.58.

The substance TCVGFSGVGKGNSSIKVKEA returned an amyloid nucleation score of 0.351 ± 0.42.

TCWVGYYVCW showed an amyloid nucleation score of -0.336 ± 0.53.

Regarding TDIFSNISYQSGQPATIDYH, the amyloid nucleation score was 0.176 ± 0.69.

With TDIVVCSCDGFWKYSYIGGL, the amyloid nucleation score was 2.18 ± 0.12.

Take TDMLMLIMIRVSLIGRRTFQ: the amyloid nucleation score entry is “inactive”.

As to TDNTSFELYIWTDAFLKQTT, the amyloid nucleation score was found to be 0.208 ± 1.

In turn, TDNTVVVMHWFHTFSPGARK had an amyloid nucleation score of 2.08 ± 0.28.

TDPLSYTFVTSPVMVTRGSS had an amyloid nucleation score of -0.942 ± 0.52.

In turn, TDWARTRSQRHVLHDSPAGL gave an amyloid nucleation score of -0.452 ± 1.4.

TEGLKVTLIHTTPLFCP displayed an amyloid nucleation score of 0.239 ± 0.42.

In turn, TEGYVFKCVGKMFLFRFSFA showed an amyloid nucleation score of -0.114 ± 0.36.

TEIIFYLVYGWLTFRILGYN registered an amyloid nucleation score of -0.705 ± 0.43.

For the substance TEIILYSILLSMYDLMFVVI, the amyloid nucleation score was 0.268 ± 1.4.

In turn, TEKTVRCDLTWQTHLLLCFA gave an amyloid nucleation score of -0.369 ± 0.83.

With TERDCRCSFGTVPMCSMGNW, the amyloid nucleation score was determined as 0.595 ± 0.34.

On to TERDLYDILTKTMGIGVSRW, for which the amyloid nucleation score is -0.544 ± 0.57.

Substance TETQECVSRYVILGGGAGVS displayed an amyloid nucleation score of 0.271 ± 0.71.

TFASTS: the amyloid nucleation score turned out to be 0.002 ± 0.36.

In turn, TFEYDT gave an amyloid nucleation score of 0.332 ± 0.61.

Regarding TFFRTTCTICCM, the amyloid nucleation score was 5.01 ± 0.053.

In turn, TFGNLRMDVRAPTRFKDLLK came in with an amyloid nucleation score of 1.27 ± 0.47.
